These results are taken from article PMC2646141.

This test deals with untagged wild type APOBEC3G (A3G) (human), Q9HC16. The experiment in a line: cross-linking; cleared lysate of transfected 293T cells treated with BM(PEO)3 (cysteine-reactive, 18 Å linker), 20°C, 1 h, quenched with DTT; SDS-PAGE and immunoblot for A3G; ~80 kD species; no RNase A, or RNase A after the crosslinking. Particulars: remark: other sources report otherwise. On the technique in general: In western blotting, separated proteins are transferred to a membrane and probed.

B1: untagged wild type APOBEC3G (A3G), Q9HC16 1-384 (natural protein)
chain: MKPHFRNTVERMYRDTFSYNFYNRPILSRRNTVWLCYEVKTKGPSRPPLDAKIFRGQVYSELKYHPEMRFFHWFSKWRKLHRDQEYEVTWYISWSPCTKCTRDMATFLAEDPKVTLTIFVARLYYFWDPDYQEALRSLCQKRDGPRATMKIMNYDEFQHCWSKFVYSQRELFEPWNNLPKYYILLHIMLGEILRHSMDPPTFTFNFNNEPWVRGRHETYLCYEVERMHNDTWVLLNQRRGFLCNQAPHKHGFLEGRHAELCFLDVIPFWKLDLDQDYRVTCFTSWSPCFSCAQEMAKFISKNKHVSLCIFTARIYDDQGRCQEGLRTLAEAGAKISIMTYSEFKHCWDTFVDHQGCPFQPWDGLDEHSQDLSGRLRAILQNQEN
The stoichiometry N is the number of molecules, sites or subunits per partner or assembly. For B1, the stoichiometry N is 2.
